Experimental data reported in US20250154281A1 (Amgen, published 2025).

Columns and labels:
[1] = target: T1, human STEAP1 (Six Trans-membrane Epithelial Antigen of the Prostate 1) (human, UniProt Q9UHE8 1-339); test: flow cytometry on C4-2B-Luc cells, APC anti-human IgG, MFI
Description: (§1) C4-2B-Luc cells were incubated with increasing concentrations of Ab-A1 XmAb²⁺¹, Ab-A1 Xmab, Ab-B1 Xmab, Ab-Mx1, Ab-Mx2 and Ab-Mx3 up to […], for 1 hour at 4° C. Cell-bound antibodies were detected by flow cytometry after incubation with an APC-conjugated anti-human IgG secondary antibody and mean fluorescence intensity (MFI) of the APC channel at increasing concentrations of respective antibodies tested.

[2] = target: T1, human STEAP1 (Six Trans-membrane …); test: cell-based or functional assay
[3] = target: T1, human STEAP1 (Six Trans-membrane …); test: flow cytometry on C4-2B-Luc cells
Description: as §1

[4] = target: T1, human STEAP1 (Six Trans-membrane …); test: cell-based or functional assay; remark: listed apart in the source
[5] = target: T1, human STEAP1 (Six Trans-membrane …); test: flow cytometry on C4-2B luc cells, MFI (repeat experiment)
Description: The experiment was repeated with Ab-A in various formats (Ab-A (traditional, monospecific antibody, not humanized), Ab-A1 XmAb format, Ab-A1 Xmab²⁺¹ format, and Ab-A2(N67Q) Xmab²⁺¹ format (with N67Q modification)) and Ab-B XmAb format. C4-2B-Luc cells were incubated with increasing concentrations of anti-STEAP1 XmAb or XmAb²⁺¹ molecules up to […], for one hour at 4° C. […] Results are shown in FIGS. 12A-12C and FIG. 13 and Table 4 below.

[6] = target: T1, human STEAP1 (Six Trans-membrane …); test: cell-based or functional assay; remark: listed apart in the source
[7] = target: T2, recombinant human CD3ε-Fc (human, UniProt P07766 23-126); test: ^b data generated using Octet
T2 construct: also called human CD3E-Fc; not shown: Fc part
T2 sequence (P07766 23-126 limits assumed): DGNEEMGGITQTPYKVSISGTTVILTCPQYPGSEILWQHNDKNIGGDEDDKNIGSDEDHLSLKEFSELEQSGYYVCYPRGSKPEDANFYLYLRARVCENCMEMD

[8] = target: T3, recombinant cynomolgus CD3ε-Fc (cynomolgus, UniProt Q95LI5 22-117, limits assumed); test: ^b data generated using Octet
T3 construct: not shown: Fc part
T3 sequence (looked up): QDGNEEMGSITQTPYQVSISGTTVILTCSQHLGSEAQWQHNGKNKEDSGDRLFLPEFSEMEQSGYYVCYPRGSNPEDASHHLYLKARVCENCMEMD

[9] = target: T1, human STEAP1 (Six Trans-membrane …); test: cell-based or functional assay; remark: listed apart in the source
[10] = target: T1, human STEAP1 (Six Trans-membrane …); test: cell-based or functional assay; remark: listed apart in the source
[11] = target: T2, recombinant human CD3ε-Fc; test: SPR, CD3ε-Fc immobilized on CM5 chip; ^a data generated using BIAcore
Description: (§2) Recombinant human CD3E-Fc and cynomolgus CD3ε-Fc were immobilized on a CM5 chip surface using standard amine coupling procedure at ˜60 RU. Ab-A2(N67Q) XmAb²⁺¹ was injected concentrations of 100, 33.3, 11.1 and 3.7 nM. The association and dissociation rates of Ab-A2(N67Q) XmAb²⁺¹ interaction to the ligands were recorded for 120 sec and 300 sec, respectively, as set forth below in Table 8. The equilibrium dissociation constant (KD) values were derived as a ratio of the dissociation rate constant and the association rate constant (koff/kₒₙ).

[12] = target: T3, recombinant cynomolgus CD3ε-Fc; test: as above
Description: as §2

T1 sequence (Q9UHE8 whole entry): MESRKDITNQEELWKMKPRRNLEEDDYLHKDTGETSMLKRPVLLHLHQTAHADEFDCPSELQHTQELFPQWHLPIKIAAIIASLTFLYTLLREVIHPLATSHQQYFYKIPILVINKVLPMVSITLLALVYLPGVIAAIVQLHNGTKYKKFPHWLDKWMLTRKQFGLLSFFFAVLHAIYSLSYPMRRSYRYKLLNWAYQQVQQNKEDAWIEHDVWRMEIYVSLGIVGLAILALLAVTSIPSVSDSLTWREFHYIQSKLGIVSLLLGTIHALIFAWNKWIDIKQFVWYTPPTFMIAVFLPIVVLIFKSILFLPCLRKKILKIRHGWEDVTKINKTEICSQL

B1: Ab-A1 XmAb^2+1 (humanized anti-STEAP1/anti-CD3 heterodimeric antibody) (bispecific antibody)
heavy 1: QVQLVQSGAEVKKPGASVKVSCKASGYTFSTYWIEWVRQAPGQRLEWMGEILPGSGNTDFNEKFQGRVTFTADTSSDTAYMELSSLRSEDTAVYYCTRWGYYGTRGYFNVWGQGTLVTVSSASTKGPSVFPLAPSSKSTSGGTAALGCLVKDYFPEPVTVSWNSGALTSGVHTFPAVLQSSGLYSLSSVVTVPSSSLGTQTYICNVNHKPSNTKVDKKVEPKSCGGGGSGGGGSEVQLVESGGGLVQPGGSLRLSCAASGFTFSTYAMNWVRQAPGKGLEWVGRIRSKYNNYATYYADSVKGRFTISRDDSKNTLYLQMNSLRAEDTAVYYCVRHGNFGDSYVSWFAYWGQGTLVTVSSGKPGSGKPGSGKPGSGKPGSQAVVTQEPSLTVSPGGTVTLTCGSSTGAVTTSNYANWVQQKPGKSPRGLIGGTNKRAPGVPARFSGSLLGGKAALTISGAQPEDEADYYCALWYSNHWVFGGGTKLTVLGGGGSGGGGSKTHTCPPCPAPPVAGPSVFLFPPKPKDTLMISRTPEVTCVVVDVKHEDPEVKFNWYVDGVEVHNAKTKPREEQYNSTYRVVSVLTVLHQDWLNGKEYKCKVSNKALPAPIEKTISKAKGQPREPQVYTLPPSREQMTKNQVKLTCLVKGFYPSDIAVEWESNGQPENNYKTTPPVLDSDGSFFLYSKLTVDKSRWQQGNVFSCSVMHEALHNHYTQKSLSLSPGK
heavy 2: QVQLVQSGAEVKKPGASVKVSCKASGYTFSTYWIEWVRQAPGQRLEWMGEILPGSGNTDFNEKFQGRVTFTADTSSDTAYMELSSLRSEDTAVYYCTRWGYYGTRGYFNVWGQGTLVTVSSASTKGPSVFPLAPSSKSTSGGTAALGCLVKDYFPEPVTVSWNSGALTSGVHTFPAVLQSSGLYSLSSVVTVPSSSLGTQTYICNVNHKPSDTKVDKKVEPKSCDKTHTCPPCPAPPVAGPSVFLFPPKPKDTLMISRTPEVTCVVVDVKHEDPEVKFNWYVDGVEVHNAKTKPREEEYNSTYRVVSVLTVLHQDWLNGKEYKCKVSNKALPAPIEKTISKAKGQPREPQVYTLPPSREEMTKNQVSLTCDVSGFYPSDIAVEWESDGQPENNYKTTPPVLDSDGSFFLYSKLTVDKSRWEQGDVFSCSVMHEALHNHYTQKSLSLSPGK
light: EIVLTQSPATLSLSPGERATLSCRASSSVSYMHWFQQKPGQAPRLLIYSTSNLASGIPARFSGSGSGTDYTLTISSLEPEDFAVYYCQQRRSFPYTFGQGTKLEIKRTVAAPSVFIFPPSDEQLKSGTASVVCLLNNFYPREAKVQWKVDNALQSGNSQESVTEQDSKDSTYSLSSTLTLSKADYEKHKVYACEVTHQGLSSPVTKSFNRGEC
notes: XmAb^2+1 format: first monomer VH-CH1-(anti-CD3 scFv)-Fc, second monomer VH-CH1-Fc, common light chain; two STEAP1 Fabs and one CD3 scFv; monomers 19 or 20 / 18 or 199 / light 17; scFv 44; also called XmAb^2+1 Ab-A1; copies: 1 + 1 + 2
Q: For B1, which EC50 [1] is on record?
A: 2200 pM

Q: What about the “TDCC EC50, C4-2B luc cells” value [2] of the same binder?
A: 6.3 pM

Q: And the “fold lower binding EC50 than Ab-A1 Xmab” value [3]?
A: 65 fold

Q: And the “TDCC EC50” value [4]?
A: 6 pM

Q: What about the EC50 [5] of the same binder?
A: 2200 pM

B2: Ab-A2(N67Q) XmAb^2+1 (variant of Ab-A1 XmAb^2+1 having a N67Q modification) (bispecific antibody)
heavy 1: QVQLVQSGAEVKKPGASVKVSCKASGYTFSTYWIEWVRQAPGQRLEWMGEILPGSGQTDFNEKFQGRVTFTADTSSDTAYMELSSLRSEDTAVYYCTRWGYYGTRGYFNVWGQGTLVTVSSASTKGPSVFPLAPSSKSTSGGTAALGCLVKDYFPEPVTVSWNSGALTSGVHTFPAVLQSSGLYSLSSVVTVPSSSLGTQTYICNVNHKPSNTKVDKKVEPKSCGGGGSGGGGSEVQLVESGGGLVQPGGSLRLSCAASGFTFSTYAMNWVRQAPGKGLEWVGRIRSKYNNYATYYADSVKGRFTISRDDSKNTLYLQMNSLRAEDTAVYYCVRHGNFGDSYVSWFAYWGQGTLVTVSSGKPGSGKPGSGKPGSGKPGSQAVVTQEPSLTVSPGGTVTLTCGSSTGAVTTSNYANWVQQKPGKSPRGLIGGTNKRAPGVPARFSGSLLGGKAALTISGAQPEDEADYYCALWYSNHWVFGGGTKLTVLGGGGSGGGGSKTHTCPPCPAPPVAGPSVFLFPPKPKDTLMISRTPEVTCVVVDVKHEDPEVKFNWYVDGVEVHNAKTKPCEEQYGSTYRCVSVLTVLHQDWLNGKEYKCKVSNKALPAPIEKTISKAKGQPREPQVYTLPPSREQMTKNQVKLTCLVKGFYPSDIAVEWESNGQPENNYKTTPPVLDSDGSFFLYSKLTVDKSRWQQGNVFSCSVMHEALHNHYTQKSLSLSPGK
heavy 2: QVQLVQSGAEVKKPGASVKVSCKASGYTFSTYWIEWVRQAPGQRLEWMGEILPGSGQTDFNEKFQGRVTFTADTSSDTAYMELSSLRSEDTAVYYCTRWGYYGTRGYFNVWGQGTLVTVSSASTKGPSVFPLAPSSKSTSGGTAALGCLVKDYFPEPVTVSWNSGALTSGVHTFPAVLQSSGLYSLSSVVTVPSSSLGTQTYICNVNHKPSDTKVDKKVEPKSCDKTHTCPPCPAPPVAGPSVFLFPPKPKDTLMISRTPEVTCVVVDVKHEDPEVKFNWYVDGVEVHNAKTKPCEEEYGSTYRCVSVLTVLHQDWLNGKEYKCKVSNKALPAPIEKTISKAKGQPREPQVYTLPPSREEMTKNQVSLTCDVSGFYPSDIAVEWESDGQPENNYKTTPPVLDSDGSFFLYSKLTVDKSRWEQGDVFSCSVMHEALHNHYTQKSLSLSPGK
light: EIVLTQSPATLSLSPGERATLSCRASSSVSYMHWFQQKPGQAPRLLIYSTSNLASGIPARFSGSGSGTDYTLTISSLEPEDFAVYYCQQRRSFPYTFGQGTKLEIKRTVAAPSVFIFPPSDEQLKSGTASVVCLLNNFYPREAKVQWKVDNALQSGNSQESVTEQDSKDSTYSLSSTLTLSKADYEKHKVYACEVTHQGLSSPVTKSFNRGEC
notes: XmAb^2+1 format (two STEAP1 Fabs, one anti-CD3 scFv); monomers 19 or 20 / 18 or 199 / light 17; scFv 44; also called Ab-A2 XmAb^2+1; copies: 1 + 1 + 2
Q: Which “TDCC EC50, A673 cells” value [6] does the source give for B2 here?
A: 122 pM

Q: And the “TDCC EC50, EBC1 cells” value [6]?
A: 162 pM

Q: And the “TDCC EC50, OE33 cells” value [6]?
A: 145 pM

Q: And the “TDCC EC50, C4-2B luc cells” value [2]?
A: 5.4 pM

Q: And the Kd [7]?
A: 27600 pM

Q: And the Kd [8]?
A: 25800 pM

Q: What about the “TDCC EC50, 22RV-1 cells” value [9] of the same binder?
A: 257 pM

Q: What about the “TDCC EC50, C4-2B cells” value [9] of the same binder?
A: 6.8 pM

Q: What about the “TDCC EC50, HBSMC cells” value [9] of the same binder?
A: 1520 pM

Q: What about the “TDCC EC50, HCT116 cells” value [9] of the same binder?
A: 336 pM

Q: What about the “TDCC EC50, HUCCT1 cells” value [9] of the same binder?
A: > 10000 pM

Q: What about the “TDCC EC50, IM-95 cells” value [9] of the same binder?
A: 345 pM

Q: And the “TDCC EC50, LOX-IMVI cells” value [9]?
A: 36.6 pM

Q: And the “TDCC EC50, NCIH1869 cells” value [9]?
A: > 10000 pM

Q: What about the “TDCC EC50, PC3 cells” value [9] of the same binder?
A: > 10000 pM

Q: And the “TDCC EC50, SK-N-MC cells” value [9]?
A: 10.4 pM

Q: What about the “TDCC EC50, SNU5 cells” value [9] of the same binder?
A: 6.2 pM

Q: What about the “TDCC EC50, TYKNU cells” value [9] of the same binder?
A: 1720 pM

Q: And the “TDCC EC50, VCaP cells” value [9]?
A: 722 pM

Q: And the EC50 [5]?
A: 1200 pM

Q: What about the “TDCC EC50, 293T cells stably transfected with human STEAP1” value [10] of the same binder?
A: 0.1 pM

Q: What about the Kd [11] of the same binder?
A: 16300 pM

Q: And the Kd [12]?
A: 15100 pM
